Key:
[1] = target: T1, human Nogo receptor-1 (Homo sapiens, UniProt Q9BZR6); test: Immunohistochemical staining of fixed and live cells expressing human Nogo receptor-1; format: cell-based
T1 construct: expressed in transfected cells; host or cells: COS-7 or 293 cells
T1 sequence (Q9BZR6 27-447): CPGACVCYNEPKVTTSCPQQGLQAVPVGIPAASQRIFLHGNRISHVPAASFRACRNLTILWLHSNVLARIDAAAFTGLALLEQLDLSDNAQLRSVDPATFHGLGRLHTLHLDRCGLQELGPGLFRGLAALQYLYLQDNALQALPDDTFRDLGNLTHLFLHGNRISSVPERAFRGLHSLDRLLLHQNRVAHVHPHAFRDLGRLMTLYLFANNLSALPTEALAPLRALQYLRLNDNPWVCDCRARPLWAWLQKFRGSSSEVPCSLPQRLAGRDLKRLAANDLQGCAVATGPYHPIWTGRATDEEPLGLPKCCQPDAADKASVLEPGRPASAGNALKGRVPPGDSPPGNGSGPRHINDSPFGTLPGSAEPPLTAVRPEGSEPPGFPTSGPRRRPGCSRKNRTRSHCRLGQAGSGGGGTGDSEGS
Method: To further characterize the binding properties of anti-Nogo receptor-1 mAbs produced as described in Example 1, we compared binding to both fixed and live COS-7 or 293 cells expressing rat or human Nogo receptor-1.
Nogo receptor-1 transfected and non-transfected cells were plated in 8-well Lab-Tek® culture slides, fixed with 4% paraformaldehyde for 15 minutes, blocked with 10% normal goat serum, 0.1% Triton X-100 in PBS for 1 hour. Mab 7E11 was added at 15 μg/ml and 1.5 μg/ml in blocking solution and incubated for 2 hours at room temperature; Alexa®-conjugated secondary antibody anti-mouse (Molecular Probes) was incubated at a 1:300 dilution in blocking solution for 1 hour; DAPI was added at 5 μg/ml to the secondary antibody to label all nuclei.
Transfected and non-transfected cells were plated in 8 well Lab-Tek® culture slides, blocked with FACS buffer (containing 4% donor horse serum) for 30 minutes at 4° C., incubated with 7E11 at 15 μg/ml and 1.5 μg/ml in FACS buffer for 1 hour at 4° C., rinsed and incubated with secondary antibody anti-mouse-Alexa® (1:300 in FACS buffer) for 30 minutes at 4° C.

[2] = tested on: DRG neurons; test: Neurite outgrowth assay on CNS myelin (Example 5); format: cell-based; conditions: P3-4 rat DRG; 15 μg/ml mAb 7E11
Method: To test the ability of the monoclonal and Fab-phage antibodies produced above to lessen the inhibitory effect of CNS myelin on neurons, Lab-Tek® culture slides (4 wells) were coated with 0.1 mg/ml poly-D-lysine (Sigma®). CNS myelin or PBS was spotted as 3 μl drops. Fluorescent microspheres (Polysciences) were added to the myelin/PBS to allow later identification of the drops (Grandpre et al, Nature 403, 2000). Lab-Tek® slides were then rinsed and coated with 10 μg/ml laminin (Gibco™). Dorsal root ganglions (DRG's) from P3-4 Sprague Dawley rat pups were dissociated with 1 mg/ml collagenase type 1 (Worthington), triturated with fire-polished Pasteur pipettes pre-plated to enrich in neuronal cells and finally plated at 23,000 cells/well on the pre-coated Lab-Tek® culture slides. The culture medium was F12 containing 5% heat inactivated donor horse serum, 5% heat inactivated fetal bovine serum and 50 ng/ml MNGF and incubated at 37 °C and 5% CO2 for 6 hours. Fifteen μg/ml of mAb 7E11 was added immediately after plating.
Slides were fixed for 20 minutes with 4% paraformaldehyde containing 20% sucrose and stained for the neuronal marker anti beta-III-tubulin (Covance TUJ1) diluted 1:500. […] 5× digital images were acquired with OpenLab™ software and analysed by using the MetaMorph® software for quantification of neurite outgrowth.

[3] = target: T2, rat NgR1 (sNgR310) fragments (Rattus norvegicus, UniProt Q99M75, C43R/T53A); test: Western blot of acid/CNBr fragments of sNgR310 probed with 7E11; format: binding
T2 construct: made in house
T2 sequence (Q99M75 27-122 C43R/T53A): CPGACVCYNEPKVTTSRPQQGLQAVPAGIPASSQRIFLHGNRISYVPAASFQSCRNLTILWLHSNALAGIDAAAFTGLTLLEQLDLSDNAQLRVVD
Method: (§1) A recombinant fragment of the rat NgR1 that contains all 8 LRR domains and the N- and C-terminal caps (sNgR310) was treated with either acid or cyanogen bromide (CNBr) and separated the fragments by gel electrophoresis. Untreated sNgR310 migrates with an apparent molecular weight of 42 kDa. Acid treatment of sNgR310 produced two major cleavage products of 15 kDa (aa 27-aa 122) and 30 kDa (aa 123-aa 310). CNBr treatment generated three fragments, a 33/35 kDa doublet (aa 27-aa 229), which may represent fragments with heterogeneous glycosylation, a 10 kDa product (aa 241-aa 310), and an 11-amino-acid fragment (aa 230-aa 240), which is not retained on the gel. […] Both the 15 kDa acid fragment and the 35 kDa CNBr fragment contained the sequence LDLSDNAQLRVVDPTT (SEQ ID NO: 1), consistent with 7E11 binding to a single epitope on NgR1.

[4] = target: T3, rat NgR1 (sNgR310) fragments (Rattus norvegicus, UniProt Q99M75, C43R/T53A); test: as above; format: binding; remark: listed apart in the source
T3 construct: made in house
T3 sequence (Q99M75 27-229 C43R/T53A): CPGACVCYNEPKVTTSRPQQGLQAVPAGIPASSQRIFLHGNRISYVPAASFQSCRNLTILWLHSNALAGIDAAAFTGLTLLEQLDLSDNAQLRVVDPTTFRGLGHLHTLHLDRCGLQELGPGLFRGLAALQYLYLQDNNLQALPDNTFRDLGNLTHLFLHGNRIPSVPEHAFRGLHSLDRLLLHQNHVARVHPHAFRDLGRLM
Method: as §1

[5] = target: T4, rat NgR1 (sNgR310) fragments (Rattus norvegicus, UniProt Q99M75, A303T/C287S/E284G); test: as above; format: binding
T4 construct: made in house
T4 sequence (Q99M75 123-310 E284G/C287S/A303T): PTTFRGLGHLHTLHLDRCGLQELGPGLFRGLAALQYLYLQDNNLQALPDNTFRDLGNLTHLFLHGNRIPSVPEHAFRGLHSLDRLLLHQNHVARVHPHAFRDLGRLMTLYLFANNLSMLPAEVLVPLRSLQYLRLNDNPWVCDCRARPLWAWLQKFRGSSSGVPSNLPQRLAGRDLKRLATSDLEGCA
Method: as §1

[6] = target: T5, rat NgR1 (sNgR310) fragments (Rattus norvegicus, UniProt Q99M75, A303T/C287S/C43R/E284G/T53A); test: as above; format: binding
T5 construct: made in house
T5 sequence (Q99M75 27-310 C43R/T53A/E284G/C287S/A303T): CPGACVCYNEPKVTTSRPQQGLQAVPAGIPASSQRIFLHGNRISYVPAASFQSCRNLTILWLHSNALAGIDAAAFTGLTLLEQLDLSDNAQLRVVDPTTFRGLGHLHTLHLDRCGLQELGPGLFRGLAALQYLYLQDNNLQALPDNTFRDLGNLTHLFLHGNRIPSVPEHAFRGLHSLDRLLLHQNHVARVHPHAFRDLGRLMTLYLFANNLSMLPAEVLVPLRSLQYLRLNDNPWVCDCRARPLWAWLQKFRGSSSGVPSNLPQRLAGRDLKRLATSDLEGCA
Method: as §1

binding to cells expressing human Nogo receptor-1 [1]: bound both fixed and live cells | 7E11 binding to 15 kDa acid fragment (aa 27-aa 122) [3]: bound | 7E11 binding to 35 kDa CNBr fragment (aa 27-aa 229) [4]: bound | 7E11 binding to 30 kD acid fragment (aa 123-aa 310) [5]: did not bind | 7E11 binding to intact rat NgR1 (aa 27-aa 310) [6]: bound
B1: 7E11: murine monoclonal anti-Nogo receptor-1 antibody, IgG1 kappa, ATCC PTA-4587; immunogen rat Nogo receptor-1 residues 110-125 (antibody, V domains shown)
VH: VQLQESGAELVMPGASVKMSCKASGYTFTDYWMHWVKQRPGQGLEWIGAIDPSDSYSSYNQNFKGKATLTVDGSSSTAYMQLSSLTSEDSAVYYCARRITEAGAWFAYWGQGTTVT
VL: DVVMTQTPLSLPVSLGDQASISCRSSQSLVHSNGNTYLHWYLQKPGQSPKLLIYKVSNRFSGVPDRFSGSGSGTDFTLKISRVDAEDLGVYFCSQSTHVPFTFGGGTKLEIKRADAAPTVSISHH
protection from myelin-mediated inhibition of neurite outgrowth [2]: protected

Reference: US20080274112A1, “Nogo Receptor Antagonists” (priority 2003, published 2008)
